Results as given in patent US20060189522A1 (IMPERIAL INNOVATIONS, published 2006).

Legend:
[1] = target: T1, GLP-1 receptor in rat hypothalamic membrane preparations (rat, UniProt P32301 22-463); experiment: competition with [125I]GLP-1 (100 pM) on rat hypothalamic membranes, radioligand displacement
T1 construct: whole, on cells; Native receptor in a rat hypothalamic membrane preparation, not intact cells and not a recombinant construct; also called GLP-receptor; GLP-IR
T1 sequence (looked up): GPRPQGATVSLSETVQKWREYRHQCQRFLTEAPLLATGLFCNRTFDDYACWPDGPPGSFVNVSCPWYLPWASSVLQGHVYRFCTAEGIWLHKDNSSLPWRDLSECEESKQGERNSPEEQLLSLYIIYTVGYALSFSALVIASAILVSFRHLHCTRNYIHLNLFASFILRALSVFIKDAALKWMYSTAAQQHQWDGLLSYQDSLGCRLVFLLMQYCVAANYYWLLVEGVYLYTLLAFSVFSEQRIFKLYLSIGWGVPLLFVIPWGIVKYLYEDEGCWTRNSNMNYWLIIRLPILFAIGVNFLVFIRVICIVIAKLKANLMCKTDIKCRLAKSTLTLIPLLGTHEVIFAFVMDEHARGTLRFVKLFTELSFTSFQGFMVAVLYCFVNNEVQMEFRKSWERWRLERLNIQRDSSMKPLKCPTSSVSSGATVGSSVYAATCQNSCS
Protocol: (§1) Membranes were incubated at room temperature for 90 min. Bound and free radioactivity were separated by centrifugation (2 min, 4° C.). Pelleted membranes were washed with assay buffer (0.5 ml, ice-cold), and the membranes were centrifuged as described above. The supernatant was removed, and the radioactivity in the pellet was counted using a γ-counter. […] All curves were constructed with points in triplicate. IC₅₀ values were calculated using the Prism 3 program (GraphPad Software, Inc., San Diego, Calif.).

[2] = target: T1, GLP-1 receptor in rat hypothalamic …; experiment: competition with [125I]GLP-1 on rat hypothalamic membranes, radioligand displacement
Protocol: as §1

IC50 [1]: 8.2 nM | affinity relative to GLP-1 [2]: ~2 orders of magnitude weaker than GLP-1
Binder: HSQGTFTSDYSKYLDSRRAQDFVQWLMNTKRNKNNIA (Bought from IAF BioChem Pharma) [human oxyntomodulin (OXM)]
